From patent US20210253731A1 (BETH ISRAEL DEACONESS MEDICAL CENTER, published 2021)

T1: human CD39 (human, UniProt P49961 38-478, limits assumed)
T1 construct: Target as named in the general statements on 5F2 and PB1-PB5 specificity; also called hCD39; ectonucleoside triphosphate diphosphohydrolase-1
T1 sequence (looked up): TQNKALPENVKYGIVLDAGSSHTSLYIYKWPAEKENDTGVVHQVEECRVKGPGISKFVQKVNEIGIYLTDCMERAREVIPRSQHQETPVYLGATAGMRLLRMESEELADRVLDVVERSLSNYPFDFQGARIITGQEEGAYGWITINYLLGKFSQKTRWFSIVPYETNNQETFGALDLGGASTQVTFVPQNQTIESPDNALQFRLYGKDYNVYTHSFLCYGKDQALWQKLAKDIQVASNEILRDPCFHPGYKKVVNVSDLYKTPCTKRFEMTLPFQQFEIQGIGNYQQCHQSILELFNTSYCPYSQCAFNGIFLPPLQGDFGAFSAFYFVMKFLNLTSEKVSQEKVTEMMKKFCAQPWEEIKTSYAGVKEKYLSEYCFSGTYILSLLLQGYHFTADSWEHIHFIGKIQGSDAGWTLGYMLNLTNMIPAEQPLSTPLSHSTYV

T2: mouse CD39 (mouse, UniProt P55772 38-478, limits assumed)
T2 construct: Target as named in the general statement on 5F2 specificity; also called mCD39
T2 sequence (looked up): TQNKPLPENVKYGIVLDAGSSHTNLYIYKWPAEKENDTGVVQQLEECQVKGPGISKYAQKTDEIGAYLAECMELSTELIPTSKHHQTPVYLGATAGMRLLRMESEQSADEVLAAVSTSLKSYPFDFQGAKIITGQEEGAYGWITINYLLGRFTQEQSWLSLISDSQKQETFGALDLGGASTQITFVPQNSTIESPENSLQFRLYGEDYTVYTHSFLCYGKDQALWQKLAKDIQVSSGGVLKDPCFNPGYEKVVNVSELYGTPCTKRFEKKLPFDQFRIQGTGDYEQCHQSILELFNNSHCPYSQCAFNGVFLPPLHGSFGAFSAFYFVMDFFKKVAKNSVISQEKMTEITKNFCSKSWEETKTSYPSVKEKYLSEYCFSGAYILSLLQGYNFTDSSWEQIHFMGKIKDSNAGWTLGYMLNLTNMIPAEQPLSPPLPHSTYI


Tests used:
human CD39 = target: T1, human CD39; assay: assay not described
mouse CD39 = target: T2, mouse CD39; assay: assay not described

| binding result (human CD39) | binding result (mouse CD39) | Binder |
| --- | --- | --- |
| binds | – | PB4 rabbit monoclonal anti-human CD39 antibody (antibody, V domains shown, Full rabbit heavy and light chains) VH: QEQLVESGGGLVQPEGSLTLTCTASGFSFSSSYYMCWVRQAPGKGLEWIGCIYIGSSTTYYATWAKGRFTISKTSSTAVTLQMTGLTAADTATYFCARDQYDDSGNLWGPGTLVTVSS VL: DVVMTQTPASVSEPVGGTVTIKCQASQSIYSGLAWYQQKPGQPPNLLIYKASNLASGVSSRFKGSRSGTEYTLTISDLECADAATYYCQNWYGISSYGRAFGGGTEVVVKG |
| binds | binds | murine monoclonal 5F2 (anti-CD39 antibody) (antibody, V domains shown, also called anti-CD39 5F2 antibody; 5F2 mAb) VH: EVQLEESGPGLVQPSQRLSITCTISGFSLTSYGIHWVRQSPGKGLEWLGVIWSGGNTDYNAAFISRLSISKDNSKSQVFFKMNSLQVGDTATYYCARNGHGSNIPWFVYWGQGTLVTVST VL: DIQLTQSPASLSVATGEKVTIRCITSTDVDDDMNWFQQKPGEPPNLLISEGDTLRPGVPSRFSSSGYGTDFVFTIENTLSEDVADYYCLQSDNMPLTFGGGTKLEIK |
